# From US20210009982
# T1: mini cellulose-binding protein A (mCbpA), P38058
# T1 chain: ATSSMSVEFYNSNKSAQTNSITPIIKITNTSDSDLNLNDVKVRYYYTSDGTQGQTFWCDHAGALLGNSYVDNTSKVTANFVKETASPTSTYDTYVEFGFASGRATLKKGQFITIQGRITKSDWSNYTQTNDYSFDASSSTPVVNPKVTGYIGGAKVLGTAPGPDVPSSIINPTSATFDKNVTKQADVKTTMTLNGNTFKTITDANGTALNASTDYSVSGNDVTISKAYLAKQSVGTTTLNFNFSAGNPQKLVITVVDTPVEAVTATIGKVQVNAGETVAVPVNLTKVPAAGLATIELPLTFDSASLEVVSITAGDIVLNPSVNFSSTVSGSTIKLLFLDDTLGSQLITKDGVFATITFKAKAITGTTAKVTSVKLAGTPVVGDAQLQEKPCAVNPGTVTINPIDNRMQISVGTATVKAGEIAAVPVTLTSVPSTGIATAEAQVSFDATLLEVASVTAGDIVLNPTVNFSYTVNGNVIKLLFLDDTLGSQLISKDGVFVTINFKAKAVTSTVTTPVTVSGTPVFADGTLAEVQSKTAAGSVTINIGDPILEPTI
# B1: arabinose isomerase (LsAraA) linked with the dockerin module of the endo-β-1,4-glucanase B gene (protein)
# chain: SLSARVSFKKHVKKGVFIMLNTENYEFWFVTGSQSLYGEETLRSVEKDAKEIVEKLNASRQLPYPIVFKLVATTADNITKVMKEANYNDHVAGVITWMHTFSPAKNWIRGTKLLQKPLLHLATQFLNKIPYDTIDFDYMNLNQSAHGDREYAFINARLRKNNKIISGYWGDEDVQKAMAKWMDVAVAYNESFKIKVVTFADKMRNVAVTDGDKVEAQIKFGWTVDYWGVGDLVAEVNAVSEADIDAKYADLQKEYDFVEGQNTPEKFEHNVKYQIREYFGLKKFMDDRGYTAFTTNFEDLVGLEQLPGLAAQLLMAEGYGFAGEGDWKTAALDRLLKIMAHNEKTVFMEDYTLDLRQGHEAILGSHMLEVDPSIASDKPRVEVHPLDIGDKDDPARLVFTGMQGDAVDVTMADYGDEFKLMSYDVRGNKPEADTPHLPVAKQLWTPKQGLREGAVGWLTVGGGHHTVLSFAVDSEQLQDLSHLFDLTYVNIKTQTQTSYSLGDVNKDGKVNAIDYAVLKSILLGTNTNVDLSVSDMNKDGKVNALDLAVLKKMLLS
# Molecular target: T1, mini cellulose-binding protein A …
protein,measurement,value
B1,tagatose conversion activity using galactose as a substrate,"the degradation activity was increased in the order of mCbpA (M), arabinose isomerase (LsAraA, L) and arabinose isomerase-mCbpA (LM)"
